From the RNAGym collection of RNA variant scans (doi:10.1073/pnas.2313332121)

B1: TPR t1 (parent)
chain: GACCAAUCUGCCCUCAGAGCUCGAGAACAUCUUCGGAUGCAGAGGAGGCAGGCUUCGGUGGCGCGAUAGCGCCAACGUCCUCAACCUCCAAUGCAUCCCACCACAUGAUGAUGCCUGAAGAGCCUUGGUUUUUUG

Variants of: B1
Test: polymerase ribozyme fitness, log enrichment relative to wild type (log ratio); higher = more active; in vitro selection for triplet polymerase activity
Summary of the method: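 Libraries of mutants in each subunit of a heterodimeric triplet polymerase ribozyme were generated by PCR and transcribed. In triplicate, each went through one in vitro selection round: annealing with biotinylated primer, partner subunit and triplets; frozen incubation at −7 °C; gel excision of extended constructs; streptavidin-bead capture; RT-PCR. Fitness, taken from Illumina sequencing of input and output libraries, is the logarithm of a genotype's enrichment over wild-type enrichment, averaged across replicates with inverse-variance weights. The logarithm is base 2, and genotypes needed ≥10 input reads and ≥1 read per output to be kept.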

Variant	polymerase ribozyme fitness (log ratio)
GACCAAUCUGCCCUCAGAGCUCGAGAACAUCUUCGGAUGCAGAGGAGGCAGGCUUCGGUGGCGCGAUAGCGCCAACGUCCUCAACCUCCAAUGCAUCCCACCACAUGAUGAUGCCUUAUGAGUCUUGGUUUUUUG	-0.29
GACCAAUCUGCCCUCAGAGCUCGAGAACAUCUUCGGAUGCAGAGGAGGCAGGCUUCGGUGGCGCGAUAGCGCCAACGUCCUCAACCUCCAAUGCAUCCCACCACAUGAUGAUGCCUCAAGAGCCUUGGUGUUUUG	-3.7
GACCAAUCUGCCCUCAGAGCUCGAGAACAUCUUCGGAUGCAGAGGAGGCAGGCUUCGGUGGCGCGAUAGCGCCAACGUCCUCAACCUCCAAUGCAUCCCACCACAUGAUGAUGCCUGAUGUGCCUUGGUUUUUUG	1.77
GACCAAUCUGCCCUCAGAGCUCGAGAACAUCUUCGGAUGCAGAGGAGGCAGGCUUCGGUGGCGCGAUAGCGCCAACGUCCUCAACCUCCAAUGCAUCCCACCACAUGAUGAUGCCUCAACAGCCUUGGUUUUUUG	-3.46
GACCAAUCUGCCCUCAGAGCUCGAGAACAUCUUCGGAUGCAGAGGAGGCAGGCUUCGGUGGCGCGAUAGCGCCAACGUCCUCAACCUCCAAUGCAUCCCACCACAUGAUGAUGCUUGAAGAGCCUUGGUUUUAUG	-0.794
GACCAAUCUGCCCUCAGAGCUCGAGAACAUCUUCGGAUGCAGAGGAGGCAGGCUUCGGUGGCGCGAUAGCGCCAACGUCCUCAACCUCCAAUGCAUCCCACCACAUGAUGAUGCCGCAAGAGCCUUGGUUUUUUG	-2.43
GACCAAUCUGCCCUCAGAGCUCGAGAACAUCUUCGGAUGCAGAGGAGGCAGGCUUCGGUGGCGCGAUAGCGCCAACGUCCUCAACCUCCAAUGCAUCCCACCACAUGAUGAUGCCUAAAGAGCCUUGCUUUUUUG	-3.45
GACCAAUCUGCCCUCAGAGCUCGAGAACAUCUUCGGAUGCAGAGGAGGCAGGCUUCGGUGGCGCGAUAGCGCCAACGUCCUCAACCUCCAAUGCAUCCCACCACAUGAUGAUGCUUAAAGAGCCUUGGUUUUUUG	-1.61
GACCAAUCUGCCCUCAGAGCUCGAGAACAUCUUCGGAUGCAGAGGAGGCAGGCUUCGGUGGCGCGAUAGCGCCAACGUCCUCAACCUCCAAUGCAUCCCACCACAUGAUGAUGCCUGGAGAGCCUUGGUUUUUUG	-0.226
GACCAAUCUGCCCUCAGAGCUCGAGAACAUCUUCGGAUGCAGAGGAGGCAGGCUUCGGUGGCGCGAUAGCGCCAACGUCCUCAACCUCCAAUGCAUCCCACCACAUGAUGAUGCCUGCAGAGCCUUGGUUUUUUG	-2.45
GACCAAUCUGCCCUCAGAGCUCGAGAACAUCUUCGGAUGCAGAGGAGGCAGGCUUCGGUGGCGCGAUAGCGCCAACGUCCUCAACCUCCAAUGCAUCCCACCACAUGAUGAUGCCUGUAGAGCCUUGGUUUUUUG	0.282
GACCAAUCUGCCCUCAGAGCUCGAGAACAUCUUCGGAUGCAGAGGAGGCAGGCUUCGGUGGCGCGAUAGCGCCAACGUCCUCAACCUCCAAUGCAUCCCACCACAUGAUGAUGCCUCAAGAUCCUUGGUUUUUUG	-3.99
GACCAAUCUGCCCUCAGAGCUCGAGAACAUCUUCGGAUGCAGAGGAGGCAGGCUUCGGUGGCGCGAUAGCGCCAACGUCCUCAACCUCCAAUGCAUCCCACCACAUGAUGAUGCCUAAAAAGCCUUGGUUUUUUG	-2.42
GACCAAUCUGCCCUCAGAGCUCGAGAACAUCUUCGGAUGCAGAGGAGGCAGGCUUCGGUGGCGCGAUAGCGCCAACGUCCUCAACCUCCAAUGCAUCCCACCACAUGAUGAUGCUUGAAGAGCGUUGGUUUUUUG	0.35
GACCAAUCUGCCCUCAGAGCUCGAGAACAUCUUCGGAUGCAGAGGAGGCAGGCUUCGGUGGCGCGAUAGCGCCAACGUCCUCAACCUCCAAUGCAUCCCACCACAUGAUGAUGCUUGAAGAGCCUUGGUUAUUUG	-0.58
GACCAAUCUGCCCUCAGAGCUCGAGAACAUCUUCGGAUGCAGAGGAGGCAGGCUUCGGUGGCGCGAUAGCGCCAACGUCCUCAACCUCCAAUGCAUCCCACCACAUGAUGAUGCCUAAAGCGCCUUGGUUUUUUG	-0.623
GACCAAUCUGCCCUCAGAGCUCGAGAACAUCUUCGGAUGCAGAGGAGGCAGGCUUCGGUGGCGCGAUAGCGCCAACGUCCUCAACCUCCAAUGCAUCCCACCACAUGAUGAUGCCUUAAAAGCCUUGGUUUUUUG	-2.24
GACCAAUCUGCCCUCAGAGCUCGAGAACAUCUUCGGAUGCAGAGGAGGCAGGCUUCGGUGGCGCGAUAGCGCCAACGUCCUCAACCUCCAAUGCAUCCCACCACAUGAUGAUGCCCGAAGAGCCUUGGUGUUUUG	-1.58
GACCAAUCUGCCCUCAGAGCUCGAGAACAUCUUCGGAUGCAGAGGAGGCAGGCUUCGGUGGCGCGAUAGCGCCAACGUCCUCAACCUCCAAUGCAUCCCACCACAUGAUGAUGCCUCAAGAGCCUUGGUUUAUUG	-3.52
GACCAAUCUGCCCUCAGAGCUCGAGAACAUCUUCGGAUGCAGAGGAGGCAGGCUUCGGUGGCGCGAUAGCGCCAACGUCCUCAACCUCCAAUGCAUCCCACCACAUGAUGAUGCCUUUAGAGCCUUGGUCUUUUG	-3.28
GACCAAUCUGCCCUCAGAGCUCGAGAACAUCUUCGGAUGCAGAGGAGGCAGGCUUCGGUGGCGCGAUAGCGCCAACGUCCUCAACCUCCAAUGCAUCCCACCACAUGAUGAUGCCUAAAGAGACUUGGUUUUUUG	-0.382

Variant	polymerase ribozyme fitness (log ratio)
GACCAAUCUGCCCUCAGAGCUCGAGAACAUCUUCGGAUGCAGAGGAGGCAGGCUUCGGUGGCGCGAUAGCGCCAACGUCCUCAACCUCCAAUGCAUCCCACCACAUGAUGAUGCUCGAAGAGCCUUGGUUUUUUG	-2.06
GACCAAUCUGCCCUCAGAGCUCGAGAACAUCUUCGGAUGCAGAGGAGGCAGGCUUCGGUGGCGCGAUAGCGCCAACGUCCUCAACCUCCAAUGCAUCCCACCACAUGAUGAUGCCAGAAGGGCCUUGGUUUUUUG	0.178
GACCAAUCUGCCCUCAGAGCUCGAGAACAUCUUCGGAUGCAGAGGAGGCAGGCUUCGGUGGCGCGAUAGCGCCAACGUCCUCAACCUCCAAUGCAUCCCACCACAUGAUGAUGCCUUAAGAGCCUUGGAUUUUUG	-3.5
GACCAAUCUGCCCUCAGAGCUCGAGAACAUCUUCGGAUGCAGAGGAGGCAGGCUUCGGUGGCGCGAUAGCGCCAACGUCCUCAACCUCCAAUGCAUCCCACCACAUGAUGAUGCCUCAAGAGCAUUGGUUUUUUG	-1.5
GACCAAUCUGCCCUCAGAGCUCGAGAACAUCUUCGGAUGCAGAGGAGGCAGGCUUCGGUGGCGCGAUAGCGCCAACGUCCUCAACCUCCAAUGCAUCCCACCACAUGAUGAUGCCUCAAGAGCCUUGGUUAUUUG	-4.01
GACCAAUCUGCCCUCAGAGCUCGAGAACAUCUUCGGAUGCAGAGGAGGCAGGCUUCGGUGGCGCGAUAGCGCCAACGUCCUCAACCUCCAAUGCAUCCCACCACAUGAUGAUGCCGGAAGAGCCUUGUUUUUUUG	-4.55
GACCAAUCUGCCCUCAGAGCUCGAGAACAUCUUCGGAUGCAGAGGAGGCAGGCUUCGGUGGCGCGAUAGCGCCAACGUCCUCAACCUCCAAUGCAUCCCACCACAUGAUGAUGCCUGUAGAGUCUUGGUUUUUUG	-0.82
GACCAAUCUGCCCUCAGAGCUCGAGAACAUCUUCGGAUGCAGAGGAGGCAGGCUUCGGUGGCGCGAUAGCGCCAACGUCCUCAACCUCCAAUGCAUCCCACCACAUGAUGAUGCCAGAAGAGCCAUGGUUUUUUG	-3.4
GACCAAUCUGCCCUCAGAGCUCGAGAACAUCUUCGGAUGCAGAGGAGGCAGGCUUCGGUGGCGCGAUAGCGCCAACGUCCUCAACCUCCAAUGCAUCCCACCACAUGAUGAUGCCUAAAGAGCCUUGGUAUUUUG	-2.15
GACCAAUCUGCCCUCAGAGCUCGAGAACAUCUUCGGAUGCAGAGGAGGCAGGCUUCGGUGGCGCGAUAGCGCCAACGUCCUCAACCUCCAAUGCAUCCCACCACAUGAUGAUGCCUCAAGGGCCUUGGUCUUUUG	0.325
GACCAAUCUGCCCUCAGAGCUCGAGAACAUCUUCGGAUGCAGAGGAGGCAGGCUUCGGUGGCGCGAUAGCGCCAACGUCCUCAACCUCCAAUGCAUCCCACCACAUGAUGAUGCCUCAAGCGCCUUGGUUUUUUG	-3.29
GACCAAUCUGCCCUCAGAGCUCGAGAACAUCUUCGGAUGCAGAGGAGGCAGGCUUCGGUGGCGCGAUAGCGCCAACGUCCUCAACCUCCAAUGCAUCCCACCACAUGAUGAUGCCCGAAGAGCCUUAGUGUUUUG	-4.14
GACCAAUCUGCCCUCAGAGCUCGAGAACAUCUUCGGAUGCAGAGGAGGCAGGCUUCGGUGGCGCGAUAGCGCCAACGUCCUCAACCUCCAAUGCAUCCCACCACAUGAUGAUGCCUAAAGAGCCAUGGUUUUUUG	-3.14
GACCAAUCUGCCCUCAGAGCUCGAGAACAUCUUCGGAUGCAGAGGAGGCAGGCUUCGGUGGCGCGAUAGCGCCAACGUCCUCAACCUCCAAUGCAUCCCACCACAUGAUGAUGCCUGAUGAGACUUGGUUUUUUG	-0.124
GACCAAUCUGCCCUCAGAGCUCGAGAACAUCUUCGGAUGCAGAGGAGGCAGGCUUCGGUGGCGCGAUAGCGCCAACGUCCUCAACCUCCAAUGCAUCCCACCACAUGAUGAUGCUUGAAGAGCCUGGGUUUUUUG	-3.36
GACCAAUCUGCCCUCAGAGCUCGAGAACAUCUUCGGAUGCAGAGGAGGCAGGCUUCGGUGGCGCGAUAGCGCCAACGUCCUCAACCUCCAAUGCAUCCCACCACAUGAUGAUGCGUGAAGAGCCUCGGUUUAUUG	-4.83
GACCAAUCUGCCCUCAGAGCUCGAGAACAUCUUCGGAUGCAGAGGAGGCAGGCUUCGGUGGCGCGAUAGCGCCAACGUCCUCAACCUCCAAUGCAUCCCACCACAUGAUGAUGCUUGAAGAGCCUUGAUUUUUUG	-2.99
GACCAAUCUGCCCUCAGAGCUCGAGAACAUCUUCGGAUGCAGAGGAGGCAGGCUUCGGUGGCGCGAUAGCGCCAACGUCCUCAACCUCCAAUGCAUCCCACCACAUGAUGAUGCCUGUAGAGCCUUGAUUUUUUG	-1.29
GACCAAUCUGCCCUCAGAGCUCGAGAACAUCUUCGGAUGCAGAGGAGGCAGGCUUCGGUGGCGCGAUAGCGCCAACGUCCUCAACCUCCAAUGCAUCCCACCACAUGAUGAUGCCUGUAGAGCCUUGGUUUUAUG	-1.21
GACCAAUCUGCCCUCAGAGCUCGAGAACAUCUUCGGAUGCAGAGGAGGCAGGCUUCGGUGGCGCGAUAGCGCCAACGUCCUCAACCUCCAAUGCAUCCCACCACAUGAUGAUGCCUAAAGAGCCUUGGUUUUAUG	-1.2
GACCAAUCUGCCCUCAGAGCUCGAGAACAUCUUCGGAUGCAGAGGAGGCAGGCUUCGGUGGCGCGAUAGCGCCAACGUCCUCAACCUCCAAUGCAUCCCACCACAUGAUGAUGCCUGUAUAGCCUUGGUUUUUUG	-0.245
